3 substances from patent publication US20160060340A1 can be followed below.

In assay [1] the target is FOLR1-mycHis (human) (UniProt P15328). Description: SPR (Biacore T100), antibody captured on CM5 chip, FOLR1-mycHis as analyte, single-cycle kinetics, 1:1 binding model. For orientation: Surface plasmon resonance follows binding to a sensor surface in real time, without labels.
For assay [2] the target is unchanged. Nature of the assay: SPR as in Example 29, antibody captured, FOLR1-mycHis as analyte.

FOLR1-mycHis (human), sequence (P15328 25-233): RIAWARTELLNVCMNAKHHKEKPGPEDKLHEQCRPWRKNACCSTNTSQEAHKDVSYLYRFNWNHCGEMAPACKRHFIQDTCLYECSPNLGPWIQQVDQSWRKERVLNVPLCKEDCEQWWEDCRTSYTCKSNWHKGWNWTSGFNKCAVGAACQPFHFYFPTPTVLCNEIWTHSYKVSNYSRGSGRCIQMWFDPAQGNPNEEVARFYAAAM

In general, Kd refers to the equilibrium constant for the complex coming apart. A low value points to higher affinity. In assay [1], LK26 antibody (GeneTex) yielded a Kd of 66 nM.

MORAb-003DF antibody: in assay [2], the affinity as percent of that of HuRA15-7CTAcc antibody was found to be 1.1%.

In assay [1], MOv18 antibody (ALEXIS BIO…) displayed a Kd of 92 nM.
